Patent US20100129344A1 (published 2010)

Tests used:
[1] = target: T1, des(1-3)IGF-I (human, UniProt P05019 52-118); assay: BIAcore, des(1-3)IGF-I amine-coupled on chip
T1 construct: domain: des(1-3)IGF-I (mature IGF-I without its first three residues)
Experimental: Recombinant pIGFBP-1 was analyzed across a des(1-3) IGF-I biosensor surfaces with a concentration range of 50, 100, 200, 400 nM, at a flow rate of 10 μl/min. The mean sensorgrams are shown for 400 nM IGFBP-1 (intact, n=3) and 200 nM IGFBP-1, intact (0 h, n=4) and after 2-h (n=5) and 4-h (n=3) incubations with partially purified azurocidin in a protease:substrate ratio of 1:3 500 for 2 h at 37 C.
Instrument and reagents (buffers, chemicals for activating and deactivated) were purchased from BIAcore (Uppsala, Sweden). IGF-I, IGF-II and des(1-3)IGF-I were immobilized on the sensor chip by amine coupling and deactivated with 0.1M ethanolamine. A reference flow cell was also prepared to correct for background and bulk refractive index contribution. After equilibration buffer to achieve a stable baseline, binding experiments was at 22 C in 2 separate experiments with the samples injected in random order. 40 μl of each sample was injected over the sensor surface at a rate of 10 μl/min (association period), followed by a 6 min wash with buffer (dissociation period). The sensor surface was regenerated with 20 μl of 100 mM HCl and washed for 6 min before the next sample. […]
The interaction of IGFBP-1 with des(1-3)IGF-I on the biosensor surface was also determined. […]

[2] = target: T2, IGF-II (human) (human, UniProt P01344 25-91); assay: BIAcore, IGF-II on chip against IGF-I on chip, 200 nM
T2 construct: also called radioiodinated IGF-II
Experimental: (§1) Instrument and reagents (buffers, chemicals for activating and deactivated) were purchased from BIAcore (Uppsala, Sweden). IGF-I, IGF-II and des(1-3)IGF-I were immobilized on the sensor chip by amine coupling and deactivated with 0.1M ethanolamine. A reference flow cell was also prepared to correct for background and bulk refractive index contribution. After equilibration buffer to achieve a stable baseline, binding experiments was at 22 C in 2 separate experiments with the samples injected in random order. 40 μl of each sample was injected over the sensor surface at a rate of 10 μl/min (association period), followed by a 6 min wash with buffer (dissociation period). The sensor surface was regenerated with 20 μl of 100 mM HCl and washed for 6 min before the next sample. We used a 1:1 Langmuir binding interaction model for kinetic analysis using the BIAcore software and GraphPad Prism (GraphPad Software Inc, San Diego, Calif.).
(§2) The interaction of proteolysed IGFBP-1 with IGF-I and IGF-II biosensor surfaces was analysed (BIAcore). In FIG. 12 the mean biosensorgrams for the interaction of 200 nM phosphorylated IGFBP-1 intact are shown, and after 2-h and 4-h incubations with partially purified azurocidin, with immobilized IGF-I (FIG. 12A) and IGF-II (FIG. 12B). […]

[3] = target: T2, IGF-II (human); assay: BIAcore, IGF-II on chip against IGF-I on chip, 400 nM
Experimental: as §1
The interaction of proteolysed IGFBP-1 with IGF-I and IGF-II biosensor surfaces was analysed (BIAcore). […] The kinetic analyses of the rates of association (over 21-120 s, ks) and dissociation (over 261-360 s, kd) for the results shown in FIGS. 12A and 12B are summarized in Table 2. […] The rate of dissociation further increased to more than 7-fold at the 4-h time point. […]

[4] = target: T2, IGF-II (human); assay: BIAcore, IGF-II on chip, 200 nM (the reference itself)
Experimental: as §1, §2

[5] = target: T2, IGF-II (human); assay: BIAcore, IGF-II on chip, 400 nM
Experimental: The sensor surface was regenerated with 20 μl of 100 mM HCl and washed for 6 min before the next sample. We used a 1:1 Langmuir binding interaction model for kinetic analysis using the BIAcore software and GraphPad Prism (GraphPad Software Inc, San Diego, Calif.).
The interaction of proteolysed IGFBP-1 with IGF-I and IGF-II biosensor surfaces was analysed (BIAcore). […] The kinetic analyses of the rates of association (over 21-120 s, ks) and dissociation (over 261-360 s, kd) for the results shown in FIGS. 12A and 12B are summarized in Table 2. […] The rate of dissociation further increased to more than 7-fold at the 4-h time point. The rate of dissociation of IGFBP-1 from IGF-II was greater than twice that from IGF-I, and proteolysis had no effect on this relationship.
TABLE 2 Kinetic analysis of interactions of intact and proteolysed phosphorylated IGFBP-1 with IGF biosensor surfaces The kinetic data shown in […] were analysed using the 1:1 Langmuir interaction model. IGFBP-I was injected either intact, or after 2- or 4-proteolysis by azurocidin, over IGF-I and IGF-II biosensor surfaces.

[6] = target: T3, Recombinant IGF-I (human) (human, UniProt P05019 49-118); assay: BIAcore, IGF-I on chip, 200 nM (the reference itself)
T3 construct: also called IGF-1; full length IGF-I
Experimental: as §1, §2

[7] = target: T3, Recombinant IGF-I (human); assay: BIAcore, IGF-I on chip, 400 nM
Experimental: as §1, §2

[8] = target: T2, IGF-II (human); assay: cell-based or functional assay

T3 sequence (P05019 49-118 limits assumed): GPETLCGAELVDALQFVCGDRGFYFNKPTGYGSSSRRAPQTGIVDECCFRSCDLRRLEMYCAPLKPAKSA
T2 sequence (P01344 25-91 limits assumed): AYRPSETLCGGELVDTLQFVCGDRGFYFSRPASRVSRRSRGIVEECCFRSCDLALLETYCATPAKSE
T1 sequence (P05019 52-118 limits assumed): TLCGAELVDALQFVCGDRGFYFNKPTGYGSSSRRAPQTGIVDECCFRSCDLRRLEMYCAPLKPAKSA

B1: Recombinant phosphorylated IGFBP-1 (human), intact (other, UniProt P08833 26-259, looked up)
chain: APWQCAPCSAEKLALCPPVSASCSEVTRSAGCGCCPMCALPLGAACGVATARCARGLSCRALPGEQQPLHALTRGQGACVQESDASAPHAAEAGSPESPESTEITEEELLDNFHLMAPSEEDHSILWDAISTYDGSKALHVTNIKKWKEPCRIELYRVVESLAKAQETSGEEISKFYLPNCNKNGFYHSRQCETSMDGEAGLCWCVYPWNGKRIPGSPEIRGDPNCQIYFNVQN
modifications: phosphorylated; the sites were not determined here (the filing names Ser101, Ser119, Ser169 as sites for phosphorylation)
notes: mature; Analyte in the BIAcore runs and substrate in the protease assays; also called pIGFBP-1; recombinant pIGFBP-1
Q: What does the source list for B1?
A: fold lower biosensor response than with full length IGF-I [1]: 10 fold less; kd rel to IGF-I [2]: 2.41 ratio; ks rel to IGF-I [2]: 1.02 ratio; kd rel to IGF-I [3]: 2.33 ratio; ks rel to IGF-I [3]: 1.01 ratio; rel kd (relative to 200 nM intact pIGFBP-1) [4]: 1 ratio; rel ks (relative to 200 nM intact pIGFBP-1) [4]: 1 ratio; rel kd (relative to 200 nM intact pIGFBP-1) [5]: 0.97 ratio; rel ks (relative to 200 nM intact pIGFBP-1) [5]: 1.86 ratio; rel kd (relative to 200 nM intact pIGFBP-1) [6]: 1 ratio; rel ks (relative to 200 nM intact pIGFBP-1) [6]: 1 ratio; rel kd (relative to 200 nM intact pIGFBP-1) [7]: 1 ratio; rel ks (relative to 200 nM intact pIGFBP-1) [7]: 1.91 ratio; 3H-thymidine incorporation in MCF-7 cells stimulated by IGF-II 10 ng/ml (2-fold without IGFBP-1) [8]: 1.5 fold
